For 1 molecule, % Inhibition results are on record in patent US5677146.

The target in test [1] is T1, Cathepsin G, purified at Novo Nordisk A/S using the method of Baugh and Travis.
T1 sequence (P08311 21-244, species assumed, looked up): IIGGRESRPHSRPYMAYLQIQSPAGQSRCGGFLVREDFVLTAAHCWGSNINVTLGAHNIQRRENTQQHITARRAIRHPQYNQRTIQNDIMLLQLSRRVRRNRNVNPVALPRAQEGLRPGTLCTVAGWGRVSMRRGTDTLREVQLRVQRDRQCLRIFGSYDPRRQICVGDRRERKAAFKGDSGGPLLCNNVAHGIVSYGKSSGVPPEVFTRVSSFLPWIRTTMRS

In test [2] the target is Leukocyte Elastase, purified at Novo Nordisk A/S using the method of Baugh and Travis.
The target of test [3] is Chymotrypsin (2.5 nM), Novo Nordisk A/S.
Test [4] concerns the target plasma kallikrein (3 nM), Kabi.
For test [5], the target named is Trypsin (8 nM), Novo Nordisk A/S, Bagsvaerd, Denmark.
The target in test [6] is Urokinase (5 nM), Serono, Freigung, Germany.
For test [7], the target named is glandular kallikrein (1 U/ml), Sigma, St Louis, MO.

B1: Kunitz-type inhibitor domain of the amyloid protein precursor (protein)
chain: EVCSEQAETGPCRAMISRWYFDVTEGKCAPFFYGGCGGNRNNFDTEEYCMAVCGSA
With B1, the % Inhibition in test [1] was found to be 16%; in test [2], 6%; with Plasmin (10 nM), Kabi, 90%; in test [3] it was 94%; in test [4] it was 71%; in test [5], 99.7%. Moreover, the results for the % Inhibition in test [6] and in test [7] were 0% and 82%, respectively.

What is called % Inhibition is the change of the read-out against control, counted positive when it falls. A higher % Inhibition goes with a response far below the control.
